According to US20240269285A1 (University of Texas, published 2024):

T1: human CD70 (human, UniProt P32970 1-193)
T1 construct: whole, on cells; also called CD70 antigen; CD27 ligand
T1 sequence (looked up): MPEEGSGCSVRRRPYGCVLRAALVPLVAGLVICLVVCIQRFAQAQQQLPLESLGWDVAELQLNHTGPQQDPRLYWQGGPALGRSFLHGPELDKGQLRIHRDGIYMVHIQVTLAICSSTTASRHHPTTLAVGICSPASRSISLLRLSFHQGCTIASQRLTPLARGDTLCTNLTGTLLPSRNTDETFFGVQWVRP


Biological target: T1, human CD70
Assay: flow cytometry on CBNK cells, Raji WT cells and Raji CD70 KO cells
Protocol: Flow cytometry assay was conducted to detect the binding of various ml, m5, m6, m7, m14, m15, m16, m19, and m22 clones CD70 antibody clones to CD70 antigen expressed in various cells.

Binder	binding result
m7 monoclonal anti-human CD70 antibody clone (antibody, V domains shown, Purified monoclonal antibody; Detected with a goat anti-mouse IgG-HRP secondary antibody; also called m7-CD70) VH: QVQLKQSGPGLVQPSQSLSITCTVSGFSLTSYGVHWVRQSPGKGLEWLGVIWSGGSTDYNAAFISRLSISKDNSKSQVFFKMNSLQANDTAIYYCATYYRYDGWFAYWGQGTLVTVSA VL: DIVLTQSPASLAVSLGQRATISCRASKSVSTSGYSYMHWYQQKPGQPPKLLIYLASNLESGVPARFSGSGSGTDFTLNIHPVEEEDAATYSCQHSRELPWTFGGGTKLEIK	binds
m14 monoclonal anti-human CD70 antibody clone (antibody, V domains shown, Purified monoclonal antibody; Detected with a goat anti-mouse IgG-HRP secondary antibody; also called m14-CD70) VH: EVQLQQSGAELVKPGASVKLSCTASGFNIKDSYMHWVKQRPEQGLEWIGRIDPANANPKYDPKFQGKATITTDTSSNTAYLQLSSLTSEDTAVYYCARDYGGYFDVWGAGTTVTVSS VL: DIQMTQSSSYLSVSLGGRVTITCKASDHINNWLAWYQQKPGNAPRLLISGATSLETGVPSRFSGSGSGKDYTLSITSLQTEDVATYYCQQYWSTPWTFGGGTKLEIK	binds
